Source: publication PMC4585734, “RBM45 homo-oligomerization mediates association with ALS-linked proteins and stress granules” (Scientific Reports, 2015)
Residue numbers refer to the chain shown, from its start. Where “and” joins values, the source holds several entries; their conditions need not be identical. Equal values may be shown once.

B1: HA-RBM45 NLS M2/3 double mutant (natural protein, human, UniProt Q8IUH3-3 1-474, looked up)
chain: MDEAGSSASGGGFRPGVDSLDEPPNSRIFLVISKYTPESVLRERFSPFGDIQDIWVVRDKHTKESKGIAFVKFARSSQACRAMEEMHGQCLGPNDTKPIKVFIAQSRSSGSHRDVEDEELTRIFVMIPKSYTEEDLREKFKVYGDIEYCSIIKNKVTGESKGLGYVRYLKPSQAAQAIENCDRSFRAILAEPKNKASESSEQDYYSNMRQEALGHEPRVNMFPFEQQSEFSSFDKNDSRGQEAISKRLSVVSRVPFTEEQLFSIFDIVPGLEYCEVQRDPYSNYGHGVVQYFNVASAIYAKYKLHGFQYPPGNRIGVSFIDDGSNATDLLRKMATQMVAAQLASMVWNNPSQQQFMQFGGSSGSQLPQIQTDVVLPSCKKKAPAETPVKERLFIVFNPHPLPLDVLEDIFCRFGNLIEVYLVSGKNVGYAKYADRISANDAIATLHGKILNGVALAVMLADSPAEESNAAQATY
notes: also called NLS-M2/3 mutant; HA-RBM45-NLS mutant; source: HEK293, transfected, in lysate or in cells; not shown: 2xHA, N-terminal, kept
B2: HA-tagged full-length RBM45 (natural protein, human, UniProt Q8IUH3-3 1-474, looked up)
chain: B1 chain with A454R, A456K, A464R, A469K, A470R, A472R
notes: pcDNA3; also called HA-RBM45; HA-RBM45 wild-type; source: HEK293, transfected, in lysate or in cells; not shown: 2xHA, N-terminal, kept
B3: truncated HA-RBM45 variant (107–474) that lacks RRM1 (domain or fragment, human, UniProt Q8IUH3-3 107-474, looked up)
chain: RSSGSHRDVEDEELTRIFVMIPKSYTEEDLREKFKVYGDIEYCSIIKNKVTGESKGLGYVRYLKPSQAAQAIENCDRSFRAILAEPKNKASESSEQDYYSNMRQEALGHEPRVNMFPFEQQSEFSSFDKNDSRGQEAISKRLSVVSRVPFTEEQLFSIFDIVPGLEYCEVQRDPYSNYGHGVVQYFNVASAIYAKYKLHGFQYPPGNRIGVSFIDDGSNATDLLRKMATQMVAAQLASMVWNNPSQQQFMQFGGSSGSQLPQIQTDVVLPSCKKKAPAETPVKERLFIVFNPHPLPLDVLEDIFCRFGNLIEVYLVSGKNVGYAKYADRISANDAIATLHGKILNGVRLKVMLADSPREESNKRQRTY
notes: source: HEK293, transfected, in cells; not shown: 2xHA, N-terminal, kept
B4: HA-RBM45 deletion construct D1 (Δ212–216) (natural protein, human, UniProt Q8IUH3-3 1-474, looked up)
chain: MDEAGSSASGGGFRPGVDSLDEPPNSRIFLVISKYTPESVLRERFSPFGDIQDIWVVRDKHTKESKGIAFVKFARSSQACRAMEEMHGQCLGPNDTKPIKVFIAQSRSSGSHRDVEDEELTRIFVMIPKSYTEEDLREKFKVYGDIEYCSIIKNKVTGESKGLGYVRYLKPSQAAQAIENCDRSFRAILAEPKNKASESSEQDYYSNMRQEPRVNMFPFEQQSEFSSFDKNDSRGQEAISKRLSVVSRVPFTEEQLFSIFDIVPGLEYCEVQRDPYSNYGHGVVQYFNVASAIYAKYKLHGFQYPPGNRIGVSFIDDGSNATDLLRKMATQMVAAQLASMVWNNPSQQQFMQFGGSSGSQLPQIQTDVVLPSCKKKAPAETPVKERLFIVFNPHPLPLDVLEDIFCRFGNLIEVYLVSGKNVGYAKYADRISANDAIATLHGKILNGVRLKVMLADSPREESNKRQRTY
notes: also called HA-RBM45 D1 mutant; source: HEK293, transfected, in lysate or in cells; not shown: 2xHA, N-terminal, kept
B5: HA-RBM45 deletion construct D2 (Δ230–234) (natural protein, human, UniProt Q8IUH3-3 1-474, looked up)
chain: MDEAGSSASGGGFRPGVDSLDEPPNSRIFLVISKYTPESVLRERFSPFGDIQDIWVVRDKHTKESKGIAFVKFARSSQACRAMEEMHGQCLGPNDTKPIKVFIAQSRSSGSHRDVEDEELTRIFVMIPKSYTEEDLREKFKVYGDIEYCSIIKNKVTGESKGLGYVRYLKPSQAAQAIENCDRSFRAILAEPKNKASESSEQDYYSNMRQEALGHEPRVNMFPFEQQSEKNDSRGQEAISKRLSVVSRVPFTEEQLFSIFDIVPGLEYCEVQRDPYSNYGHGVVQYFNVASAIYAKYKLHGFQYPPGNRIGVSFIDDGSNATDLLRKMATQMVAAQLASMVWNNPSQQQFMQFGGSSGSQLPQIQTDVVLPSCKKKAPAETPVKERLFIVFNPHPLPLDVLEDIFCRFGNLIEVYLVSGKNVGYAKYADRISANDAIATLHGKILNGVRLKVMLADSPREESNKRQRTY
notes: source: HEK293, transfected, in lysate or in cells; not shown: 2xHA, N-terminal, kept
B6: FLAG-tagged RBM45 (full-length FLAG-RBM45) (natural protein, human, UniProt Q8IUH3-3 1-474, looked up)
chain: B1 chain with A454R, A456K, A464R, A469K, A470R, A472R
notes: pcDNA3; band of 56.6 kD; also called 3xFLAG-RBM45; FLAG-RMB45; source: HEK293, transfected or stably expressing, in lysate or in cells; not shown: 3xFLAG, N-terminal, kept

Target: the molecule itself
Assay: cross-linking; in vivo DSS cross-linking (1 mM DSS for 10 minutes, room temperature, PBS) of HEK293 expressing HA-RBM45 constructs; SDS-PAGE and immunoblot

Protein	stoichiometry N
B1	5
B2	5 and 10
B3	5
B4	5
B5	5

Target: the molecule itself
Assay: cross-linking; in vivo DSS cross-linking of live HEK293 stably expressing FLAG-RBM45, DSS 0 to 5000 uM; denaturing SDS-PAGE and immunoblot

Protein	stoichiometry N
B6	2 and 5
